Holding throughout (assay): resonant mirror detection (IAsys)
For test [1], the target named is CaM (Homo sapiens, UniProt P0DP23).
Test [2] has as its target T1, band 3cyt cytoplasmic domain (Homo sapiens, UniProt P02730).
T1 chain: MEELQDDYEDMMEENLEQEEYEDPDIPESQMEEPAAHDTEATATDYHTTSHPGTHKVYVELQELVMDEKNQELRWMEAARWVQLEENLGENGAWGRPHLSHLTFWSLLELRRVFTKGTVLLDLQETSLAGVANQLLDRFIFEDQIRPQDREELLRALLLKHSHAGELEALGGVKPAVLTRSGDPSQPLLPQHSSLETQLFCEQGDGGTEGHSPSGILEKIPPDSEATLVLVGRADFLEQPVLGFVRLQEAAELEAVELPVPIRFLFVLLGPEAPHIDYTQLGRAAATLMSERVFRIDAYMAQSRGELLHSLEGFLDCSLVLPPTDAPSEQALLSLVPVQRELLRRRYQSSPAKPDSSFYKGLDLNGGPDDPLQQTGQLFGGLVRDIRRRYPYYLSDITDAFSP

Test [3] has as its target T2, GPCcyt cytoplasmic domain (Homo sapiens, UniProt P04921).
T2 chain: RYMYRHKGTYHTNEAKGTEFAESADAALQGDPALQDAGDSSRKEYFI

B1: 4.1R135 (protein)
chain: MTTEKSLVTEAENSQHQQKEEGEEAINSGQQEPQQEESCQTAAEGDNWCEQKLKASNGDTPTHEDLTKNKERTSESRGLSRLFSSFLKRPKSQVSEEEGKEVESDKEKGEGGQKEIEFGTSLDEEIILKAPIAAPEPELKTDPSLDLHSLSSAETQPAQEELREDPDFEIKEGEGLEECSKIEVKEESPQSKAETELKASQKPIRKHRNMHCKVSLLDDTVYECVVEKHAKGQDLLKRVCEHLNLLEEDYFGLAIWDNATSKTWLDSAKEIKKQVRGVPWNFTFNVKFYPPDPAQLTEDITRYYLCLQLRQDIVAGRLPCSFATLALLGSYTIQSELGDYDPELHGVDYVSDFKLAPNQTKELEEKVMELHKSYRSMTPAQADLEFLENAKKLSMYGVDLHKAKDLEGVDIILGVCSSGLLVYKDKLRINRFPWPKVLKISYKRSSFFIKIRPGEQEQYESTIGFKLPSYRAAKKLWKVCVEHHTFFRLTSTDTIPKSKFLALGSKFRYSGRTQAQTRQASALIDRPAPHFERTASKRASRSLDGAAAVDSADRSPRPTSAPAITQGQVAEGGVLDASAKKTVVPKAQKETVKAEVKKEDEPPEQAEPEPTEAWKVEKTHIEVTVPTSNGDQTQKLAEKTEDLIRMRKKKRERLDGENIYIRHSNLMLEDLDKSQEEIKKHHASISELKKNFMESVPEPRPSEWDKRLSTHSPFRTLNINGQIPTGEGPPLVKTQTVTISDNANAVKSEIPTKDVPIVHTETKTITYEAAQTDDNSGDLDPGVLLTAQTITSETPSSTTTTQITKTVKGGISETRIEKRIVITGDADIDHDQVLVQAIKEAKEQHPDMSVTKVVVHQETEIADE
modifications: EGTA (no Ca2+)
As usually defined, the Kd is the concentration at which binding is half-saturated. Lower therefore signals tighter binding. For the molecule B1, the Kd in test [1] stood at 11700 nM.

B2: 4.1R135 (protein)
chain: MTTEKSLVTEAENSQHQQKEEGEEAINSGQQEPQQEESCQTAAEGDNWCEQKLKASNGDTPTHEDLTKNKERTSESRGLSRLFSSFLKRPKSQVSEEEGKEVESDKEKGEGGQKEIEFGTSLDEEIILKAPIAAPEPELKTDPSLDLHSLSSAETQPAQEELREDPDFEIKEGEGLEECSKIEVKEESPQSKAETELKASQKPIRKHRNMHCKVSLLDDTVYECVVEKHAKGQDLLKRVCEHLNLLEEDYFGLAIWDNATSKTWLDSAKEIKKQVRGVPWNFTFNVKFYPPDPAQLTEDITRYYLCLQLRQDIVAGRLPCSFATLALLGSYTIQSELGDYDPELHGVDYVSDFKLAPNQTKELEEKVMELHKSYRSMTPAQADLEFLENAKKLSMYGVDLHKAKDLEGVDIILGVCSSGLLVYKDKLRINRFPWPKVLKISYKRSSFFIKIRPGEQEQYESTIGFKLPSYRAAKKLWKVCVEHHTFFRLTSTDTIPKSKFLALGSKFRYSGRTQAQTRQASALIDRPAPHFERTASKRASRSLDGAAAVDSADRSPRPTSAPAITQGQVAEGGVLDASAKKTVVPKAQKETVKAEVKKEDEPPEQAEPEPTEAWKVEKTHIEVTVPTSNGDQTQKLAEKTEDLIRMRKKKRERLDGENIYIRHSNLMLEDLDKSQEEIKKHHASISELKKNFMESVPEPRPSEWDKRLSTHSPFRTLNINGQIPTGEGPPLVKTQTVTISDNANAVKSEIPTKDVPIVHTETKTITYEAAQTDDNSGDLDPGVLLTAQTITSETPSSTTTTQITKTVKGGISETRIEKRIVITGDADIDHDQVLVQAIKEAKEQHPDMSVTKVVVHQETEIADE
Regarding B2, the Kd in test [2] stood at 23 nM; in test [3], 1330 nM.

B3: 4.1R135 (protein)
chain: MTTEKSLVTEAENSQHQQKEEGEEAINSGQQEPQQEESCQTAAEGDNWCEQKLKASNGDTPTHEDLTKNKERTSESRGLSRLFSSFLKRPKSQVSEEEGKEVESDKEKGEGGQKEIEFGTSLDEEIILKAPIAAPEPELKTDPSLDLHSLSSAETQPAQEELREDPDFEIKEGEGLEECSKIEVKEESPQSKAETELKASQKPIRKHRNMHCKVSLLDDTVYECVVEKHAKGQDLLKRVCEHLNLLEEDYFGLAIWDNATSKTWLDSAKEIKKQVRGVPWNFTFNVKFYPPDPAQLTEDITRYYLCLQLRQDIVAGRLPCSFATLALLGSYTIQSELGDYDPELHGVDYVSDFKLAPNQTKELEEKVMELHKSYRSMTPAQADLEFLENAKKLSMYGVDLHKAKDLEGVDIILGVCSSGLLVYKDKLRINRFPWPKVLKISYKRSSFFIKIRPGEQEQYESTIGFKLPSYRAAKKLWKVCVEHHTFFRLTSTDTIPKSKFLALGSKFRYSGRTQAQTRQASALIDRPAPHFERTASKRASRSLDGAAAVDSADRSPRPTSAPAITQGQVAEGGVLDASAKKTVVPKAQKETVKAEVKKEDEPPEQAEPEPTEAWKVEKTHIEVTVPTSNGDQTQKLAEKTEDLIRMRKKKRERLDGENIYIRHSNLMLEDLDKSQEEIKKHHASISELKKNFMESVPEPRPSEWDKRLSTHSPFRTLNINGQIPTGEGPPLVKTQTVTISDNANAVKSEIPTKDVPIVHTETKTITYEAAQTDDNSGDLDPGVLLTAQTITSETPSSTTTTQITKTVKGGISETRIEKRIVITGDADIDHDQVLVQAIKEAKEQHPDMSVTKVVVHQETEIADE
modifications: Ca2+
In test [1], B3 came in with a Kd of 78 nM.

The values above are taken from paper PMC3166722 (2011).
